doi:10.1101/2021.05.06.442907

Target: actin filaments (UniProt P68135)

## Chara braunii myosin XI-1 motor domain construct without IQ motifs (domain or fragment)
  Vmax of actin-activated ATPase activity, 25 °C (Pi s^−1 head^−1): 410
